{"source": "patent US20260078175A1", "about": "(Boehringer Ingelheim, published 2026)", "binders": {"B1": {"name": "Antibody of the invention (clone I) (antibody, human IgG1, kappa, L234A L235A, V domains shown)", "VH": "EVQLVESGGGLVQPGGSLRLSCAASGFTFSSYYMSWVRQAPGKGLEWVSTIIKSGGYAYYPDSVKDRFTISRDNSKNTLYLQMSSLRAEDTAVYYCVRGGQGAMDYWGQGTTVTVSS", "VL": "EIVLTQSPATLSLSPGERATLSCRASQSIGDYLHWYQQKPGQAPRLLIKYASQSISGIPARFSGSGSGTDFTLTITSLEPEDFAVYYCQQGYSFPYTFGGGTKLEIKR", "notes": "also called clone 1; anti-Sema3A antibody of the invention"}}, "key": {"Rat Sema3A [1]": {"biological_target": "T1, Rat Sema3A (rat, UniProt Q63548 21-772, limits assumed)", "T1 construct": "Construct not described", "T1 sequence (looked up)": "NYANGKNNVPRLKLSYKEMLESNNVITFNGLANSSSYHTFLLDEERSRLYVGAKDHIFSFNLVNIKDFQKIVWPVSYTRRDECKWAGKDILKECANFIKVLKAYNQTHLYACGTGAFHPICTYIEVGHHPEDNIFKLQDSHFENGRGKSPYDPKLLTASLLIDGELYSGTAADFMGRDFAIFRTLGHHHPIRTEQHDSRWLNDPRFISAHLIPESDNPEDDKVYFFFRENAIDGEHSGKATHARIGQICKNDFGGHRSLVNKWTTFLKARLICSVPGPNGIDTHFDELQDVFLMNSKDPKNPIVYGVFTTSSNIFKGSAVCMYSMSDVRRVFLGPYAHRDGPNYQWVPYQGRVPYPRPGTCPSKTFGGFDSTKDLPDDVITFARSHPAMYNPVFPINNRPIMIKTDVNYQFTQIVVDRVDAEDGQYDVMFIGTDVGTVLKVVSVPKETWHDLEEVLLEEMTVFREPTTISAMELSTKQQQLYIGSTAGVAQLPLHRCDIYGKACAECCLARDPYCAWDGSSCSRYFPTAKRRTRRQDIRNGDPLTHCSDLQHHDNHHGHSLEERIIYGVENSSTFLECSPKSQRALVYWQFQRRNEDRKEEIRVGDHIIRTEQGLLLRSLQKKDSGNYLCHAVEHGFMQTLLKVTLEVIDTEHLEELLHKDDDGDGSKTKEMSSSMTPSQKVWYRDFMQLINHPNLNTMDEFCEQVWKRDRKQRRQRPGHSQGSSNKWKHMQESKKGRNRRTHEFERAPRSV", "assay": "SPR (GLM sensorchip), antibody captured on Human Fab Binder, Sema3A as analyte, 1:1 Langmuir fit", "experimental": "(§1) The running buffer for this experiment and all dilutions (except where stated) were done in PBS-T-EDTA with 0.01% Tween20 [100 ul of 100% Tween20 was added to 2L of PBS-T-EDTA to make final Tween 20 concentration of 0.01%]. The GLM sensorchip was normalized and pre-conditioned as per the manufacturer's recommendations. The sensorchip was activated with equal mixture of EDC/s-NHS in the horizontal direction for 300 sec at a flow rate of 30 μl/min and immobilized with Human Fab Binder (10 μg/ml in 10 mM acetate pH 5.0) in the horizontal direction for 300 sec at a flowrate of 30 μl/min resulting in ˜6739-7414 RU of Human Fab Binder on the surface. The sensorchip was deactivated with 1M ethanolamine HCl in the horizontal direction for 300 sec at a flowrate of 30 μl/min. The sensorchip was stabilized with 18 sec of 10 mM glycine, pH 2.1 at a flowrate of 100 μl/min 1 time horizontally and 1 time vertically.\n(§2) The inventors tested an exemplary antibody according to the invention (clone I). Said antibody (0.5 μg/ml) was captured on the Human Fab Binder surface vertically for 300 sec at a flowrate of 25 μl/min resulting ˜180 RU capture level. The baseline was stabilized by injecting PBS-T-EDTA for 60 sec at a flowrate of 40 μl/min horizontally. The analyte was injected horizontally over the captured antibody for 600 sec at a flowrate of 40 μl/min and a dissociation for 7200 sec. The concentrations of the analytes were 0 nM, 0.625 nM, 1.25 nM, 2.5 nM, 5 nM, and 10 nM. The surface was regenerated by injecting 10 mM glycine, pH 2.1 for 18 sec at a flowrate of 100 μl/min one time horizontally and one time vertically. PBS-T-EDTA was injected for 60 sec at a flowrate of 25 μl/min one time vertically.\n(§3) The interspot (interactions with sensor surface) and blank (PBS-T-EDTA with 0.01% Tween20 or 0 nM analyte) were subtracted from the raw data."}, "Mouse Sema3A [2]": {"biological_target": "T2, Mouse Sema3A (mouse, UniProt O08665 21-772, limits assumed)", "T2 construct": "Construct not described", "T2 sequence (looked up)": "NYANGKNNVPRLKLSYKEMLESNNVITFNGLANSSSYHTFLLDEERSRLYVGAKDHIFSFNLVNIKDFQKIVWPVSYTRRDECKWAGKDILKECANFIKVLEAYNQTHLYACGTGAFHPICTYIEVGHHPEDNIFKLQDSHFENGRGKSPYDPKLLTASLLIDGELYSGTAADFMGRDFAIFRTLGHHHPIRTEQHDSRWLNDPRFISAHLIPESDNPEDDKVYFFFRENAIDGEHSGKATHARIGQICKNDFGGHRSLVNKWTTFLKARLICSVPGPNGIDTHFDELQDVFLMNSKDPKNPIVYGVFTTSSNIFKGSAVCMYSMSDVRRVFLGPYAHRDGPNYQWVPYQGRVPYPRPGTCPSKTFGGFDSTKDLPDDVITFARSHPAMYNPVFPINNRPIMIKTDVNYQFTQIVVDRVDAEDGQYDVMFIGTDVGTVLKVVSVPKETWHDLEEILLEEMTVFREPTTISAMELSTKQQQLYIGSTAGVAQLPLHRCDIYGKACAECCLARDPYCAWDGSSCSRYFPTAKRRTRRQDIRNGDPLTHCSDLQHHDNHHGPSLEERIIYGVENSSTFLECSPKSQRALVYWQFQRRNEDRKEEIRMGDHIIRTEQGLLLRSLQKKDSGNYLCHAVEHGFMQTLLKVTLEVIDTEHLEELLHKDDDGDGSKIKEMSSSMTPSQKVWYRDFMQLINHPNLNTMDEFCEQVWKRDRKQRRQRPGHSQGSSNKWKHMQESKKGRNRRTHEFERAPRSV", "assay": "SPR (GLM sensorchip), antibody captured on Human Fab Binder, Sema3A as analyte, 1:1 Langmuir fit", "experimental": "as §1, §2, §3"}, "[3]": {"biological_target": "T3, Human semaphorin 3A (Sema3A) (human, UniProt Q14563 21-771)", "T3 construct": "also called human Sema3A; HuSema3A", "T3 sequence": "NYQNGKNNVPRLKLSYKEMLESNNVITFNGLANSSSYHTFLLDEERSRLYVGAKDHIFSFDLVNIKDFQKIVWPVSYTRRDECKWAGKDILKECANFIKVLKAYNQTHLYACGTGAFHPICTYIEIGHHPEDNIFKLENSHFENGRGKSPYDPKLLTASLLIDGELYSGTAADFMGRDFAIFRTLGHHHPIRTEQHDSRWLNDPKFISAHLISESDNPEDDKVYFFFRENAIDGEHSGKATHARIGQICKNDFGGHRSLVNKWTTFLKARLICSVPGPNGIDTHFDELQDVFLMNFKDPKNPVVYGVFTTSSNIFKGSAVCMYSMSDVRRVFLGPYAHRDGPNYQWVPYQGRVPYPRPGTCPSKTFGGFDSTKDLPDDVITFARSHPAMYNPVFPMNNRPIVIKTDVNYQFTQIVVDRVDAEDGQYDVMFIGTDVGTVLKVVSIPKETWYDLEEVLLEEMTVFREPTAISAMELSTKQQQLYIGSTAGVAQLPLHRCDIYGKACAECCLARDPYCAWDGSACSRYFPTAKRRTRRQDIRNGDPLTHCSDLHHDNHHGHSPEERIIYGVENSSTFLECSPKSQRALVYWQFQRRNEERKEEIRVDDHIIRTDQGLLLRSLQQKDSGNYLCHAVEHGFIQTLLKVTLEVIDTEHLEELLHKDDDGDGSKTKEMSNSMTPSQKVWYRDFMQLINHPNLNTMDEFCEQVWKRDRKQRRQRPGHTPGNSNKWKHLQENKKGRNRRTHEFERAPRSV", "assay": "SPR (GLM sensorchip), antibody captured on Human Fab Binder, Sema3A as analyte, 1:1 Langmuir fit", "experimental": "as §1, §2, §3"}, "Rabbit Sema3A [4]": {"biological_target": "T4, Rabbit Sema3A (rabbit, UniProt G1T285 21-770)", "T4 construct": "Construct not described", "T4 sequence": "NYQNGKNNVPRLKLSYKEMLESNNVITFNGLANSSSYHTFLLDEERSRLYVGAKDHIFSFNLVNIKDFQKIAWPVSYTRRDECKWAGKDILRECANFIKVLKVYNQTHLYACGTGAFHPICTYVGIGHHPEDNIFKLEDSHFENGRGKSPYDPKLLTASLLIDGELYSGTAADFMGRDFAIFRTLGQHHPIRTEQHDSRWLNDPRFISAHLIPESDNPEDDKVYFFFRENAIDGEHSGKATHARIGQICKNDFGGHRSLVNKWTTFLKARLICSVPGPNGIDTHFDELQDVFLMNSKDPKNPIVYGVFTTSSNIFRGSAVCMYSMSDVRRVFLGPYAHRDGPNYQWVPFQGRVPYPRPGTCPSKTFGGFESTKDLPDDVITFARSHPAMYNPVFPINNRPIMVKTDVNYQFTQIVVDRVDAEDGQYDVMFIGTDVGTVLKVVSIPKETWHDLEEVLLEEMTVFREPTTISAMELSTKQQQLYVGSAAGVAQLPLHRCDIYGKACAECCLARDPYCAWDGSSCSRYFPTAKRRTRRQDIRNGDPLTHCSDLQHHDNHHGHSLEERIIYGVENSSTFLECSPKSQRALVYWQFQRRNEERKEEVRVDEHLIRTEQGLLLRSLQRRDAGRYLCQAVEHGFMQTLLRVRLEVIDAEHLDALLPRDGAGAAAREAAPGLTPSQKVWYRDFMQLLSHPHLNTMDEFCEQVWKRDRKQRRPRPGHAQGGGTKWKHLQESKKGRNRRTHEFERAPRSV", "assay": "SPR (GLM sensorchip), antibody captured on Human Fab Binder, Sema3A as analyte, 1:1 Langmuir fit", "experimental": "as §1, §2, §3"}, "[5]": {"biological_target": "T3, Human semaphorin 3A (Sema3A)", "assay": "SPR (BioRad GLM chip), antibody captured on anti-human Fab antibody, human Sema3A as analyte, 1:1 Langmuir fit", "experimental": "A high surface density of anti-human Fab antibody (GE Healthcare) was immobilized over a GLM chip (BioRad) via direct amine coupling over 6 horizontal channels according to the BioRad manufacturer's manual.\nThe antibody of the invention (clone 1) and the Chiome antibodies were captured over the anti-human Fab antibody surface over 5 of 6 vertical channels with a minimum surface density for the kinetic binding assay. Human Sema3A was prepared in PBS-T-EDTA buffer (BioRad) at concentrations of 100, 50, 25, 12.5, 10, 6.25, 5, 2.5, 1.25, 0.625 and 0 nM. A PBS-T-EDTA buffer injection was used as a double reference for the kinetic data analysis. Each of the human Sema3A solutions and PBS-T-EDTA buffer were injected simultaneously over the 6 horizontal channels for 10 min at a flow rate of 40 μL/min followed by 2 hr dissociation phase. The surfaces were regenerated by an 18 sec injection of 10 mM pH 2.1 glycine HCl (GE Healthcare) at a flow rate of 100 μL/min followed by an injection of 60 sec PBS-T-EDTA at a flow rate of 25 μL/min."}, "[6]": {"biological_target": "Cynomolgus Sema3A (cynomolgus)", "assay": "SPR (GLM sensorchip), antibody captured on Human Fab Binder, Sema3A as analyte, 1:1 Langmuir fit"}, "Rat Sema3A [7]": {"biological_target": "T1, Rat Sema3A", "assay": "SPR (BioRad GLM chip), antibody captured on goat anti-human IgG, Sema3A as analyte, 1:1 Langmuir fit"}, "Mouse Sema3A [8]": {"biological_target": "T2, Mouse Sema3A", "assay": "SPR (BioRad GLM chip), antibody captured on goat anti-human IgG, Sema3A as analyte, 1:1 Langmuir fit"}, "[9]": {"biological_target": "T3, Human semaphorin 3A (Sema3A)", "assay": "SPR (BioRad GLM chip), antibody captured on goat anti-human IgG, Sema3A as analyte, 1:1 Langmuir fit"}, "Rabbit Sema3A [10]": {"biological_target": "T4, Rabbit Sema3A", "assay": "SPR (BioRad GLM chip), antibody captured on goat anti-human IgG, Sema3A as analyte, 1:1 Langmuir fit"}, "[11]": {"biological_target": "Cynomolgus Sema3A (cynomolgus)", "assay": "SPR (BioRad GLM chip), antibody captured on goat anti-human IgG, Sema3A as analyte, 1:1 Langmuir fit"}}}
{"binder": "B1", "values": [{"measurement": "Kd", "setting": "Rat Sema3A [1]", "value": 0.027, "unit": "nM"}, {"measurement": "Kd", "setting": "Mouse Sema3A [2]", "value": 0.027, "unit": "nM"}, {"measurement": "Kd", "setting": "[3]", "value": 0.029, "unit": "nM"}, {"measurement": "Kd", "setting": "Rabbit Sema3A [4]", "value": 0.042, "unit": "nM"}, {"measurement": "Kd", "setting": "[5]", "value": 0.032, "unit": "nM"}, {"measurement": "Kd", "setting": "[6]", "value": 0.028, "unit": "nM"}, {"measurement": "Kd", "setting": "Rat Sema3A [7]", "value": 0.0235, "unit": "nM"}, {"measurement": "Kd", "setting": "Mouse Sema3A [8]", "value": 0.035, "unit": "nM"}, {"measurement": "Kd", "setting": "[9]", "value": 0.0347, "unit": "nM"}, {"measurement": "Kd", "setting": "Rabbit Sema3A [10]", "value": 0.0401, "unit": "nM"}, {"measurement": "Kd", "setting": "[11]", "value": 0.035, "unit": "nM"}]}
